Measurements as given in patent publication US20240132578A1.

Legend:
Assay in all cases: cell-based or functional assay
[1] = target: HIV-1 Env of isolate MGRM-AE-001 (pseudovirus) (HIV-1)
[2] = target: HIV-1 Env of isolate MGRM-D-005 (HIV-1)
[3] = target: HIV-1 Env of isolate MGRM-G-027 (subtype G) (HIV-1)
[4] = target: HIV-1 Env of isolate MGRM-C-022 (subtype C), on pseudovirus (HIV-1)
[5] = target: HIV-1 Env of isolate MGRM-C-024 (subtype C), on pseudovirus (HIV-1)
[6] = target: HIV-1 Env of isolate MGRM-G-011 (subtype G) (HIV-1)
[7] = target: HIV-1 Env of pseudovirus MGRM-F1-012 (HIV-1)
[8] = target: HIV-1 Env of pseudovirus MGRM-F1-008 (HIV-1)
[9] = target: HIV-1 Env of pseudovirus MGRM-F1-015 (HIV-1)
[10] = target: HIV-1 Env of pseudovirus MGRM-D-018 (HIV-1)
[11] = target: HIV-1 Env of pseudovirus MGRM-D-022 (HIV-1)
[12] = target: HIV-1 Env of isolate MGRM-A-009 (subtype A) (HIV-1)
[13] = target: HIV-1 Env of isolate 92WR009 (pseudovirus) (HIV-1)
[14] = target: HIV-1 Env of isolate MGRM-AE-003 (subtype AE) (HIV-1)
[15] = target: HIV-1 Env of isolate MGRM-D-014 (pseudovirus) (HIV-1)
[16] = target: HIV-1 Env of isolate 92UG024 (pseudovirus) (HIV-1)
[17] = target: HIV-1 Env of isolate 92UG005 (pseudovirus) (HIV-1)
[18] = target: HIV-1 Env of isolate MGRM-AG-008 (subtype AG) (HIV-1)
[19] = target: HIV-1 envelope glycoprotein (Env) of isolate MGRM-Chronic-B-017, on pseudovirus (HIV-1)
[20] = target: HIV-1 Env of isolate MGRM-F1-021 (pseudovirus) (HIV-1)
[21] = target: HIV-1 Env of isolate MGRM-F1-017 (pseudovirus) (HIV-1)
[22] = target: HIV-1 envelope glycoprotein (Env) of isolate MGRM-Chronic-B-020, on pseudovirus (HIV-1)
[23] = target: HIV-1 MGRM-D-018 Env (HIV-1)
[24] = target: HIV-1 Env of isolate MGRM-F1-015 (pseudovirus) (HIV-1)
[25] = target: HIV-1 envelope glycoprotein (Env) of isolate PVO.4, on pseudovirus (HIV-1)
[26] = target: HIV-1 envelope glycoprotein (Env) of isolate QH0692.42, on pseudovirus (HIV-1)
[27] = target: HIV-1 MGRM-C-028 Env (HIV-1)
[28] = target: HIV-1 JR-CSF Env N411A (HIV-1 (isolate JR-CSF)) (UniProt P20871)

4970_K22 (PGT-144) (antibody), sequence (VH): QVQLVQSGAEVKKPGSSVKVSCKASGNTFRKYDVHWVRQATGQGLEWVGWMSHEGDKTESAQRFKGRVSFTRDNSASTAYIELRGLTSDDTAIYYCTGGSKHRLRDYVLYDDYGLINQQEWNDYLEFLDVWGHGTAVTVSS
4970_K22 (PGT-144) (antibody), sequence (VL): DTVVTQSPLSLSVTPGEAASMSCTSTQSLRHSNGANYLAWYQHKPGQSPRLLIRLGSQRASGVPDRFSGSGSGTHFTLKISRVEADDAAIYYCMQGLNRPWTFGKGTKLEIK
PGT-142 (4995_E20) (antibody), sequence (VH): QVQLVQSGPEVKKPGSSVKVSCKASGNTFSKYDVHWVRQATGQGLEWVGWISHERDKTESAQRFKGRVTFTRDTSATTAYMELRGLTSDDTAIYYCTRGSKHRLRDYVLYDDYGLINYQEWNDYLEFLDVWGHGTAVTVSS
PGT-142 (4995_E20) (antibody), sequence (VL): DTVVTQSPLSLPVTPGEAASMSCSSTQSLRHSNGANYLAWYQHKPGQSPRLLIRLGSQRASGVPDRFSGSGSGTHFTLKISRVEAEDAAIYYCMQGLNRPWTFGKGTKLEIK
PGT-141 (4964_G22; 4993_K13) (antibody), sequence (VH): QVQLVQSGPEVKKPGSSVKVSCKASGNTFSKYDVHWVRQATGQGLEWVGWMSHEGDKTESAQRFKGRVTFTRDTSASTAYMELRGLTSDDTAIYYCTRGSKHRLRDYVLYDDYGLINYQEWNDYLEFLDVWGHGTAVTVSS
4995_P16 (PGT-145) (antibody), sequence (VH): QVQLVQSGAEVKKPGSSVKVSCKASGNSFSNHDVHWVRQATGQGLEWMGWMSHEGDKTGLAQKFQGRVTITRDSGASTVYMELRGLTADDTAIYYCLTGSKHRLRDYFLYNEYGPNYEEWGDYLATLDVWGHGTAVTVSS
4995_P16 (PGT-145) (antibody), sequence (VL): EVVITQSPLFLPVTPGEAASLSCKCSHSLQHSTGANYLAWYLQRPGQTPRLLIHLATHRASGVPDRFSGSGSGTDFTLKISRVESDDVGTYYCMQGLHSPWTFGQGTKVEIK

Substance	IC50 (µg/mL), single-round pseudovirus neutralization [1] [µg/mL]	IC50 (µg/mL), pseudovirus neutralization [2] [µg/mL]	IC50 (µg/mL), pseudovirus neutralization [3] [µg/mL]	IC50, single-round pseudovirus neutralization [4] [µg/mL]	IC50, single-round pseudovirus neutralization [5] [µg/mL]	IC50 (µg/mL), pseudovirus neutralization [6] [µg/mL]	IC50, pseudovirus neutralization [7] [µg/mL]	IC50, pseudovirus neutralization [8] [µg/mL]	IC50, pseudovirus neutralization [9] [µg/mL]	IC50, pseudovirus neutralization [10] [µg/mL]	IC50, pseudovirus neutralization [11] [µg/mL]	IC50, pseudovirus neutralization [12] [µg/mL]	IC50 (µg/mL), pseudovirus neutralization [13] [µg/mL]	IC50, pseudovirus neutralization [14] [µg/mL]	IC50 (µg/mL), pseudovirus neutralization [15] [µg/mL]	IC50 (µg/mL), pseudovirus neutralization [16] [µg/mL]	IC50 (µg/mL), pseudovirus neutralization [17] [µg/mL]	IC50, pseudovirus neutralization [18] [µg/mL]	further results
4995_P16 (PGT-145) (antibody)	20.9	10.4	0.433	0.492	0.174	0.028													
PGT-141 (4964_G22; 4993_K13) (antibody)							> 50	0.193	> 50	> 50	> 50								
4970_K22 (PGT-144) (antibody)	> 50	14.8	> 50	2.58	2.06	1.58													
5345_I01 (PGT-137) (antibody)												> 50	> 50	> 50	> 50	0.106	> 50	> 50	
PGT-142 (4995_E20) (antibody)							> 50	0.124	> 50	> 50	> 50								
5329_C19 (PGT-136) (antibody)												> 50	> 50	> 50	> 50	0.052	> 50	> 50	
4877_D15 (PGT-122) (antibody)																			IC50, pseudovirus neutralization [19]: 5.66 µg/mL; IC50 (µg/mL), pseudovirus neutralization [20]: 2.3 µg/mL; IC50 (µg/mL), pseudovirus neutralization [21]: > 50 µg/mL; IC50, pseudovirus neutralization [22]: 0.005 µg/mL; IC50, pseudovirus neutralization [23]: 0.0115 µg/mL; IC50 (µg/mL), pseudovirus neutralization [24]: 31.4 µg/mL; IC50, pseudovirus neutralization [25]: 0.689 µg/mL; IC50, pseudovirus neutralization [26]: 0.493 µg/mL; IC50, pseudovirus neutralization [27]: 2.06 µg/mL
PGT-145 (4995_P16) (antibody)							0.113	0.228	1.76	0.065	34.3								
5343_B08 (PGT-135) (antibody)												> 50	> 50	> 50	2.21	0.01	> 50	> 50	Fold IC50 increase relative to wild-type (pseudovirus neutralization) [28]: 0.2 fold
4995_E20 (PGT-142) (antibody)	> 50	1.15	> 50	0.086	0.03	0.046													
